Tests used:
Assay in all cases: EMSA
Conditions in all cases: tags: MBP fusion
[1] = biological target: ZFP SBS#262 (synthetic)
In short: (§1)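 Purified ZFP was titrated against labeled double-stranded target (1 nM or lower, at least 10-fold below expected Kd) carrying the natural binding site with flanks. Binding buffer was 10 mM Tris pH 7.5, 100 mM KCl, 1 mM MgCl2, 0.1 mM ZnCl2, 5 mM DTT, 10% glycerol, 0.02% BSA, with equilibration for at least 45 min. Bound and free target were separated on a 10% polyacrylamide gel.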

[2] = biological target: ZFP SBS#263 (synthetic, UniProt P08047)
Chain of ZFP SBS#263 (P08047 other isoform, or with tags, fused parts or gaps): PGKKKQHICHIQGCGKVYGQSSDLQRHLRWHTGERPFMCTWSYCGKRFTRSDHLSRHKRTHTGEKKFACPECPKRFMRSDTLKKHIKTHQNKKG
In short: as §1

[3] = biological target: T1, ZFP SBS#1360 (synthetic)
T1 chain: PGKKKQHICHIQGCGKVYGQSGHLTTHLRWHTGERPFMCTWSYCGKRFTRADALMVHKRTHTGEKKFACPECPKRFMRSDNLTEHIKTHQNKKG
In short: as §1

[4] = biological target: T2, ZFP SBS#1384 (synthetic, UniProt P08047)
T2 chain: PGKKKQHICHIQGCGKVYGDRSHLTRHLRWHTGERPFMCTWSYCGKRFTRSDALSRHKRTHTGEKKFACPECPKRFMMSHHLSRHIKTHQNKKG
In short: as §1

[5] = biological target: T3, ZFP SBS#1373 (synthetic, UniProt P08047)
T3 chain: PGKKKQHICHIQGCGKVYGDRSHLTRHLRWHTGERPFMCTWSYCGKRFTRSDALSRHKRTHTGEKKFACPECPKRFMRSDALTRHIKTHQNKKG
In short: as §1

[6] = biological target: T4, ZFP SBS#1386 (synthetic)
T4 chain: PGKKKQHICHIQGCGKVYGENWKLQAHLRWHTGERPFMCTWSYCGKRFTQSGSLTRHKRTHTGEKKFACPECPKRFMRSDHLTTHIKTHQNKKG
In short: as §1

[7] = biological target: ZFP SBS#1385 (synthetic)
Chain of ZFP SBS#1385 (synthetic) (chain, as listed by the source): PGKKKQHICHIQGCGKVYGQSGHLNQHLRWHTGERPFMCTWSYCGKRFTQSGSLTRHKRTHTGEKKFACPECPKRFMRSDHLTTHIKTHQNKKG
In short: as §1

[8] = biological target: T5, ZFP SBS#1369 (synthetic)
T5 chain: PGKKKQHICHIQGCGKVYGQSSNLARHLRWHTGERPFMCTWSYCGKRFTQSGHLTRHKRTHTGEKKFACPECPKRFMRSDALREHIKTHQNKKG
In short: as §1

[9] = biological target: T6, ZFP SBS#1368 (synthetic)
T6 chain: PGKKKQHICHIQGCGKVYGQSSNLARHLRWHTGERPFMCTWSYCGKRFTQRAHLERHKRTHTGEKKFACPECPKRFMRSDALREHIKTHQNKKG
In short: as §1

[10] = biological target: ZFP SBS#1397 (synthetic)
Chain of ZFP SBS#1397 (synthetic) (chain, as listed by the source): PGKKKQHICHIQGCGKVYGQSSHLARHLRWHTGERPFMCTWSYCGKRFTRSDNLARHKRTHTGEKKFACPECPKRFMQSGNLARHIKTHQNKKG
In short: as §1

[11] = biological target: T7, ZFP SBS#1396 (synthetic)
T7 chain: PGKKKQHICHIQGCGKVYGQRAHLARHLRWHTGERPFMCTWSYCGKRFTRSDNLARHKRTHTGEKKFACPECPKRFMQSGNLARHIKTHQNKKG
In short: as §1

[12] = biological target: ZFP SBS#1395 (synthetic)
Chain of ZFP SBS#1395 (synthetic) (chain, as listed by the source): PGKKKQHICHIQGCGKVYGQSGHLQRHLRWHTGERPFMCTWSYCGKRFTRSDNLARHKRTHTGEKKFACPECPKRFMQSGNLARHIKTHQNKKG
In short: as §1

[13] = biological target: T8, ZFP SBS#1389 (synthetic)
T8 chain: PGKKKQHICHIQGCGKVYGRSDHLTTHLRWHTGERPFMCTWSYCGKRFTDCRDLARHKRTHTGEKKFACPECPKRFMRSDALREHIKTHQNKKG
In short: as §1

[14] = biological target: T9, ZFP SBS#1329 (synthetic)
T9 chain: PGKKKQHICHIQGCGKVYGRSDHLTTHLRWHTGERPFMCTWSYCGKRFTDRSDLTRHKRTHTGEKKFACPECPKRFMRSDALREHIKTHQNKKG
In short: as §1

[15] = biological target: T10, ZFP SBS#1331 (synthetic)
T10 chain: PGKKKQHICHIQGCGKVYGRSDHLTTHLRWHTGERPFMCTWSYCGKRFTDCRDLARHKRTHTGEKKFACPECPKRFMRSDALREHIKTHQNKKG
In short: as §1

[16] = biological target: ZFP SBS#1394 (synthetic, UniProt P08047)
Chain of ZFP SBS#1394 (P08047 other isoform, or with tags, fused parts or gaps): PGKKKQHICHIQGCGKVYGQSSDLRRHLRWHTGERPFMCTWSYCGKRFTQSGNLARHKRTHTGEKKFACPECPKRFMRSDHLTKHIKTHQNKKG
In short: as §1

[17] = biological target: ZFP SBS#1393 (synthetic)
In short: as §1

[18] = biological target: T11, ZFP SBS#1379 (synthetic)
T11 chain: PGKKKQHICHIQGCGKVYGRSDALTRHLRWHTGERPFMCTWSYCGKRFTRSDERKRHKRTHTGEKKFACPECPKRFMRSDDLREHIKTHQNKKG
In short: as §1

[19] = biological target: T12, ZFP SBS#1378 (synthetic)
T12 chain: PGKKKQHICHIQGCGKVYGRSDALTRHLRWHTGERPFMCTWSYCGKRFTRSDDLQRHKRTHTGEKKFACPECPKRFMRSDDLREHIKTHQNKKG
In short: as §1

[20] = biological target: T13, ZFP SBS#1375 (synthetic)
T13 chain: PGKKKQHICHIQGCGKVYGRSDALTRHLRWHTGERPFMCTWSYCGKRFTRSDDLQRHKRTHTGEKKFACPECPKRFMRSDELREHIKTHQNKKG
In short: as §1

[21] = biological target: T14, ZFP SBS#1377 (synthetic, UniProt P08047)
T14 chain: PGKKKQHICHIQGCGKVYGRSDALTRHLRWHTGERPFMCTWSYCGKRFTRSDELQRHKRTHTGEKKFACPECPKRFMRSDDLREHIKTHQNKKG
In short: as §1

[22] = biological target: T15, ZFP SBS#1376 (synthetic)
T15 chain: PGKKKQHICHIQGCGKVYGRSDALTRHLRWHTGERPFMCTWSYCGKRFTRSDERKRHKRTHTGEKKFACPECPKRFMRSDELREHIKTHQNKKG
In short: as §1

[23] = biological target: T16, ZFP SBS#1374 (synthetic, UniProt P08047)
T16 chain: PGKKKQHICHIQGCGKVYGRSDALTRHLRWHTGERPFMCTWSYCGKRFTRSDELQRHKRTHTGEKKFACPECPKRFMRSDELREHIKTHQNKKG
In short: as §1

[24] = biological target: T17, ZFP SBS#1366 (synthetic)
T17 chain: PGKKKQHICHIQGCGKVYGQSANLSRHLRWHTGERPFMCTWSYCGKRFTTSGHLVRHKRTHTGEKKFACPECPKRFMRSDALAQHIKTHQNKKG
In short: as §1

[25] = biological target: T18, ZFP SBS#1364 (synthetic)
T18 chain: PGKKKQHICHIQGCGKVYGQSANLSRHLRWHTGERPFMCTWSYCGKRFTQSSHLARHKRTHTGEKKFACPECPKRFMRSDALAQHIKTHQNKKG
In short: as §1

[26] = biological target: T19, ZFP SBS#1367 (synthetic)
T19 chain: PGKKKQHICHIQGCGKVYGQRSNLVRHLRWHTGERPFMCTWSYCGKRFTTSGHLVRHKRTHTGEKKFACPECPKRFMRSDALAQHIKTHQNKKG
In short: as §1

[27] = biological target: T20, ZFP SBS#1365 (synthetic)
T20 chain: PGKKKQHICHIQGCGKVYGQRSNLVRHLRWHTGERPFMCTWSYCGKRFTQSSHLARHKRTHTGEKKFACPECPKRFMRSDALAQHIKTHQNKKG
In short: as §1

[28] = biological target: T21, ZFP SBS#1400 (synthetic)
T21 chain: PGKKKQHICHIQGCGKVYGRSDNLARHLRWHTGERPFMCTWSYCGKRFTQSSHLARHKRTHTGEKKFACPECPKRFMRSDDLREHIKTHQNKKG
In short: as §1

[29] = biological target: ZFP SBS#1403 (synthetic)
In short: as §1

[30] = biological target: T22, ZFP SBS#1381 (synthetic)
T22 chain: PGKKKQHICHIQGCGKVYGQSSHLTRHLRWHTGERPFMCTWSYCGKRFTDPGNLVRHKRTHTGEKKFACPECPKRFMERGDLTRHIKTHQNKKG
In short: as §1

[31] = biological target: T23, ZFP SBS#1382 (synthetic)
T23 chain: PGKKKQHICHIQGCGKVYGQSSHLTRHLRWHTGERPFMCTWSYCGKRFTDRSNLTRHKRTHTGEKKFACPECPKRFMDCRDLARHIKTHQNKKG
In short: as §1

[32] = biological target: T24, ZFP SBS#1380 (synthetic)
T24 chain: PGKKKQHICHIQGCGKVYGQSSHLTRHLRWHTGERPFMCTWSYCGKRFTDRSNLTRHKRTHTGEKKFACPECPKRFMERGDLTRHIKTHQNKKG
In short: as §1

[33] = biological target: T25, ZFP SBS#1383 (synthetic)
T25 chain: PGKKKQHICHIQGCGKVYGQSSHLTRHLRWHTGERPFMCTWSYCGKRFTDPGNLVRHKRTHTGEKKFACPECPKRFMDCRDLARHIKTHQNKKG
In short: as §1

[34] = biological target: T26, ZFP SBS#1363 (synthetic)
T26 chain: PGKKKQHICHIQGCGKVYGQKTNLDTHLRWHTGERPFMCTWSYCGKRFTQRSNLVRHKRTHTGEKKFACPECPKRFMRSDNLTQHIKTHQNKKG
In short: as §1

[35] = biological target: T27, ZFP SBS#1361 (synthetic)
T27 chain: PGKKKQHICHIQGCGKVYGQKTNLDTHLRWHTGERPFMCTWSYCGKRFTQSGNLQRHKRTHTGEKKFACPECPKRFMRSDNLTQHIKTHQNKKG
In short: as §1

[36] = biological target: ZFP SBS#1362 (synthetic)
In short: as §1

Chain of ZFP SBS#262 (synthetic) (chain, as listed by the source): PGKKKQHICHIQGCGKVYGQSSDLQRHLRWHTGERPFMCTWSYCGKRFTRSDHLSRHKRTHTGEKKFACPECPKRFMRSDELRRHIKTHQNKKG

B1: GCGGGGGCT (dsDNA)
DNA 1: GCGGGGGCT
DNA 2: AGCCCCCGC
- Kd [1]: 20000 pM
- Kd [2]: 1000 pM

B2: CAGTTGTGA (dsDNA)
DNA 1: CAGTTGTGA
DNA 2: TCACAACTG
- Kd [3]: 41700 pM

B3: GGTGTGGGC (dsDNA)
DNA 1: GGTGTGGGC
DNA 2: GCCCACACC
- Kd [4]: 13 pM

B4: GTGGTGGGC (dsDNA)
DNA 1: GTGGTGGGC
DNA 2: GCCCACCAC
- Kd [5]: 25 pM

B5: TGGGCAAGA (dsDNA)
DNA 1: TGGGCAAGA
DNA 2: TCTTGCCCA
- Kd [6]: 193 pM
- Kd [7]: 229 pM

B6: CTGGGAGAT (dsDNA)
DNA 1: CTGGGAGAT
DNA 2: ATCTCCCAG
- Kd [8]: 227 pM
- Kd [9]: 51 pM

B7: GAAGAGGGA (dsDNA)
DNA 1: GAAGAGGGA
DNA 2: TCCCTCTTC
- Kd [10]: 140 pM
- Kd [11]: 107 pM
- Kd [12]: 25 pM

B8: CTGGCCTGG (dsDNA)
DNA 1: CTGGCCTGG
DNA 2: CCAGGCCAG
- Kd [13]: 175 pM
- Kd [14]: 680 pM
- Kd [15]: 388 pM

B9: TGGGAAGCT (dsDNA)
DNA 1: TGGGAAGCT
DNA 2: AGCTTCCCA
- Kd [16]: 40 pM
- Kd [17]: 100 pM

B10: CCGGCGGTG (dsDNA)
DNA 1: CCGGCGGTG
DNA 2: CACCGCCGG
- Kd [18]: 250 pM
- Kd [19]: 12 pM
- Kd [20]: 8 pM
- Kd [21]: 12 pM
- Kd [22]: 858 pM
- Kd [23]: 3 pM

B11: ATGGGTGAA (dsDNA)
DNA 1: ATGGGTGAA
DNA 2: TTCACCCAT
- Kd [24]: 22600 pM
- Kd [25]: 1220 pM
- Kd [26]: 1030 pM
- Kd [27]: 152 pM

B12: CCGGGTGAG (dsDNA)
DNA 1: CCGGGTGAG
DNA 2: CTCACCCGG
- Kd [28]: 371 pM

B13: ATGGCAATG (dsDNA)
DNA 1: ATGGCAATG
DNA 2: CATTGCCAT
- Kd [29]: 70 pM

B14: GCCGACGGT (dsDNA)
DNA 1: GCCGACGGT
DNA 2: ACCGTCGGC
- Kd [30]: 230 pM
- Kd [31]: 3100 pM
- Kd [32]: 76 pM
- Kd [33]: 1740 pM

B15: AAGGAAAAA (dsDNA)
DNA 1: AAGGAAAAA
DNA 2: TTTTTCCTT
- Kd [34]: 74100 pM
- Kd [35]: 835 pM
- Kd [36]: 332 pM

From patent US20030068675, “Position dependent recognition of GNN nucleotide triplets by zinc fingers” (published 2003)
